Measured values: patent publication US20250009876A1 (H LUNDBECK A S, published 2025)
Like-named read-outs stand apart in the source and are kept apart here. One block for each binder: values may come before it.

Assays:
[1] = target: T1, PAC1-R on PAC1-R-expressing PC-12 cells (UniProt P32215 20-523); assay: cell surface binding assay (DELFIA TRF): antibody pre-incubated with PACAP38, added to PAC1-R-expressing PC-12 cells, detected with Eu anti-human IgG
T1 construct: whole, on cells; also called PAC1 receptor
T1 sequence (looked up): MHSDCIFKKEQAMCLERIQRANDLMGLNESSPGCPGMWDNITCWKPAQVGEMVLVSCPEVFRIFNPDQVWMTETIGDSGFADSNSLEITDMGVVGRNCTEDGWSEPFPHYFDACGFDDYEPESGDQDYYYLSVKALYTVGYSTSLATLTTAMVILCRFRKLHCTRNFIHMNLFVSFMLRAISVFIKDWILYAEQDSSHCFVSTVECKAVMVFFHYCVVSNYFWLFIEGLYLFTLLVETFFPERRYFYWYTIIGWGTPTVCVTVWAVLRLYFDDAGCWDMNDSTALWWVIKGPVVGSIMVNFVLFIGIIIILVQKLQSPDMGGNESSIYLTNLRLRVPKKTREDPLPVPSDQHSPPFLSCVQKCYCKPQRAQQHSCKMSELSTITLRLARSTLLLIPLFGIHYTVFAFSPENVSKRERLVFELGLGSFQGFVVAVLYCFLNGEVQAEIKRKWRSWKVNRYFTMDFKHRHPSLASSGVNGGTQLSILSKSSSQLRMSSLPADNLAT
Procedure: Cells were initially seeded at 1×10⁵ cells/well in a solution of complete RPMI (“cRPMI”: RPMI medium supplemented with 10% sterile heat-inactivated FBS and 1% sterile antibiotic/antimycotic)+10% FBS, and the plates were allowed to incubate overnight at 37° C. On the day of the binding assay, antibodies at an initial concentration of 15 μg/ml were diluted at a 1:3 ratio in DELFIA® binding buffer (50 mM Tris, 150 mM NaCl, 0.1% azide, 2% horse serum) (Perkin-Elmer, Waltham, MA) to a total volume of 60 μL in a separate 96 well round bottom plate. PACAP38 was prepared for the binding assay by diluting it in DELFIA® binding buffer to a concentration of 200 nM, and then 60 μl of the diluted PACAP38 was added to each of the antibody-containing wells to form antibody: antigen complexes. Following addition of PACAP38, the antibody: antigen complexes were incubated at room temperature on a shaker for 1 hour. Separately, the PC-12 cells were prepared for addition of antibody: antigen complexes by washing the cells two times with DELFIA® wash buffer (50 mM Tris, 150 mM NaCl, 0.1% Azide) (Perkin-Elmer, Waltham, MA). After washing the cells two times and following the 1 hour room temperature incubation of the antibody: antigen complexes, 50 μl of the antibody: antigen complex was added to each well containing cells. The mixtures of cells and antibody: antigen complexes were then incubated for 30 minutes at room temperature. Following this 30 minute incubation, each mixture was washed two times with DELFIA® wash buffer (Perkin-Elmer, Waltham, MA).
DELFIA® Europium labeled anti-human IgG detection reagent (Cat #1244-330, Perkin-Elmer, Waltham, MA) was diluted to a concentration of 300 ng/ml in DELFIA® Binding Buffer. Following dilution, 50 μl of the anti-human IgG detection reagent was added to each well containing cells, and a 30 minute incubation at room temperature followed this addition of IgG detection reagent. After completion of the 30 minute room temperature incubation, the cells were then washed two times with DELFIA® wash buffer. Next, 50 μl of DELFIA® Enhancement Solution (Cat #1244-105, Perkin-Elmer, Waltham, MA) was added to each well containing cells for a final 15 minute room temperature incubation with shaking. The plates were then read (TRF, excitation 330 nm, emission 620 nm) on a SPECTRAMAX® (Molecular Devices, Sunnyvale, CA) plate reader.

[2] = target: T2, PACAP27 (Pituitary Adenylate Cyclase-Activating Polypeptide, 27 amino acids) (human, the C-terminal leucine is amidated); assay: competition HTRF binding assay: unlabeled PACAP27 at 10x against biotinylated PACAP38 (35 nM)
T2 construct: also called human PACAP27
T2 peptide: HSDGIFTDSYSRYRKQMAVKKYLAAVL
Procedure: In parallel, 10 μl of an antibody dilution series (highest final concentration of 100 nM) were incubated with 10 μl of N-terminal or C-terminal biotinylated PACAP38 (35 nM final) alone, or in combination with either PACAP27 (350 nM final) or VIP (350 nM final), i.e., 10× PACAP27 or 10× VIP, respectively, in a HTRF plate. 20 μl of Eu³⁺ cryptate labeled anti-hu Fc donor and 20 μl of d2-labeled streptavidin acceptor were added to each well and incubated for 1 hour at room temperature. Fluorescence was measured at 620 and 665 nm with a delay of 300 usec.

[3] = target: T3, PACAP38 (Pituitary Adenylate Cyclase-Activating Polypeptide, 38 amino acids) (human, not fully specified; the C-terminal lysine is amidated); assay: cell surface binding assay (DELFIA TRF): antibody pre-incubated with PACAP38, added to PAC1-R-expressing PC-12 cells, detected with Eu anti-human IgG; the antibody is held on the cells through cell-bound PACAP38
T3 construct: In the HTRF and PC-12 cell assays the peptide was N-terminally or C-terminally biotinylated; unlabelled in SPR; also called human PACAP38; huPACAP (1-38)
T3 peptide: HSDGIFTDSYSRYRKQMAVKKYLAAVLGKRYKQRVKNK

[4] = target: T3, PACAP38 (Pituitary Adenylate …); assay: SPR (ProteOn XPR36), antibody amine-coupled, peptide analyte, 1:1 Langmuir fit
Procedure: (§1) Binding affinities of monoclonal antibodies for human PACAP were estimated using SPR on the PROTEON™ XPR36 (Bio-Rad, Hercules, CA). Antibody was immobilized to the surface of general amine coupling (“GLC” or “GLM”) Chips (Bio-Rad, Hercules, CA). […] Antigen (ranging from 1.23 nM to 100 nM) was typically run sequentially with association times of 2-4 minutes and dissociation times of 3-120 minutes grouped with the PROTEON™ Manager Software (v3.1.0.6 (Bio-Rad, Hercules, CA)) and fitted using a 1:1 Langmuir binding model. Surfaces were regenerated between analyte queries using 0.85% Phosphoric Acid.

[5] = target: T2, PACAP27 (Pituitary Adenylate …); assay: as above
Procedure: as §1

[6] = target: T3, PACAP38 (Pituitary Adenylate …); assay: cell-based or functional assay
[7] = target: T3, PACAP38 (Pituitary Adenylate …); assay: cell-based or functional assay
[8] = target: T2, PACAP27 (Pituitary Adenylate …); assay: cell-based or functional assay
[9] = target: T3, PACAP38 (Pituitary Adenylate …); assay: cell-based or functional assay
[10] = target: T3, PACAP38 (Pituitary Adenylate …); assay: cell surface binding assay (DELFIA TRF): antibody pre-incubated with PACAP38, added to PAC1-R-expressing PC-12 cells, detected with Eu anti-human IgG; the antibody is held on the cells through cell-bound PACAP38
Procedure: Cells were initially seeded at 1×10⁵ cells/well in a solution of complete RPMI (“cRPMI”: RPMI medium supplemented with 10% sterile heat-inactivated FBS and 1% sterile antibiotic/antimycotic)+10% FBS, and the plates were allowed to incubate overnight at 37° C. On the day of the binding assay, antibodies at an initial concentration of 15 μg/ml were diluted at a 1:3 ratio in DELFIA® binding buffer (50 mM Tris, 150 mM NaCl, 0.1% azide, 2% horse serum) (Perkin-Elmer, Waltham, MA) to a total volume of 60 μL in a separate 96 well round bottom plate. PACAP38 was prepared for the binding assay by diluting it in DELFIA® binding buffer to a concentration of 200 nM, and then 60 μl of the diluted PACAP38 was added to each of the antibody-containing wells to form antibody: antigen complexes. Following addition of PACAP38, the antibody: antigen complexes were incubated at room temperature on a shaker for 1 hour. […]
DELFIA® Europium labeled anti-human IgG detection reagent (Cat #1244-330, Perkin-Elmer, Waltham, MA) was diluted to a concentration of 300 ng/ml in DELFIA® Binding Buffer. […] The plates were then read (TRF, excitation 330 nm, emission 620 nm) on a SPECTRAMAX® (Molecular Devices, Sunnyvale, CA) plate reader.

[11] = target: T4, VIP (Vasoactive Intestinal Peptide) (human); assay: SPR (ProteOn XPR36), antibody amine-coupled, peptide analyte, 1:1 Langmuir fit
T4 construct: also called human VIP
T4 peptide: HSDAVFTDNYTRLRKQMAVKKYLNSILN

[12] = target: T3, PACAP38 (Pituitary Adenylate …); assay: as above
Procedure: (§2) Binding affinities of monoclonal antibodies for human PACAP were estimated using SPR on the PROTEON™ XPR36 (Bio-Rad, Hercules, CA). Antibody was immobilized to the surface of general amine coupling (“GLC″ or “GLM”) Chips (Bio-Rad, Hercules, CA). […] Antigen (ranging from 1.23 nM to 100 nM) was typically run sequentially with association times of 2-4 minutes and dissociation times of 3-120 minutes grouped with the PROTEON™ Manager Software (v3.1.0.6 (Bio-Rad, Hercules, CA)) and fitted using a 1:1 Langmuir binding model. Surfaces were regenerated between analyte queries using 0.85% Phosphoric Acid, 0.5% SDS, and 0.1N NaOH.

[13] = target: T2, PACAP27 (Pituitary Adenylate …); assay: as above
Procedure: as §2

binding result [1]: no binding (tested: about 70 nM) | binding result [2]: no binding
B1: Ab22 (antibody, human IgG1, kappa, N297A, V domains shown)
VH: QEQLVESGGGLVQPEGSLTLTCTASGFDFSSNAMCWVRQAPGKGLEWIGSIYNADGKNYYAIWAKGRFTISRTSSTTVTLQMTSLTAADTATYFCARDFDLWGQGTLVTVSS
VL: AAVLTQTPSPVSAAVGGTVTINCQSSQSVYDNDWLAWFQQKPGQPPKLLIYLTSTLASGVPSRFSGSGSGTQFTLTISGVQCDDAATYYCLGGYDEDGDTHVFGGGTEVVVKR
notes: Full-length anti-PACAP antibody; rabbit/human chimeric

EC50 (read off the curve) [3]: ~2 nM | Kd [4]: 0.021 nM | koff [4]: 1e-05 s⁻¹ | Kd [5]: 0.013 nM | koff [5]: 1e-05 s⁻¹
B2: Ab1.H (antibody, V domains shown)
VH: EVQLVESGGGLVQPGGSLRLSCAASGFTVSSAVMNWVRQAPGKGLEWIGSIVASGTTYYASSANGRFTISRDNSKNTLYLQMNSLRAEDTAVYYCARGGGEFFIWGQGTLVTVSS
VL: DIQMTQSPSTLSASVGDRVTITCQSSESVYSNYLSWYQQKPGKAPKFLIYQASNLASGVPSRFSGSGSGTEFTLTISSLQPDDFATYYCAGGYSENIVGFGGGTKVEIKR

Inhibition of 5 nM PACAP38-induced human VPAC1-R mediated cAMP increase IC50 (pM) [6]: 2480 pM | Inhibition of 0.1 nM PACAP38-induced PAC1-R mediated cAMP increase IC50 (pM) [7]: 28.5 pM | Inhibition of 1 nM PACAP27-induced PAC1-R mediated cAMP increase IC50 (pM) [8]: 274 pM | Inhibition of 1 nM PACAP38-induced human VPAC2-R mediated cAMP increase IC50 (pM) [9]: 1060 pM | EC50 (read off the curve) [10]: ~7 nM | Kd [11]: 225 nM | koff [11]: 0.011 s⁻¹ | kon [11]: 48800 M⁻¹ s⁻¹ | Kd [12]: ≤ 0.0171 nM | koff [12]: ≤ 1e-05 s⁻¹ | kon [12]: 586000 M⁻¹ s⁻¹ | Kd [13]: ≤ 0.0233 nM | koff [13]: ≤ 1e-05 s⁻¹ | kon [13]: 430000 M⁻¹ s⁻¹
B3: Ab21.H2 (antibody, human IgG1, kappa, N297A)
heavy: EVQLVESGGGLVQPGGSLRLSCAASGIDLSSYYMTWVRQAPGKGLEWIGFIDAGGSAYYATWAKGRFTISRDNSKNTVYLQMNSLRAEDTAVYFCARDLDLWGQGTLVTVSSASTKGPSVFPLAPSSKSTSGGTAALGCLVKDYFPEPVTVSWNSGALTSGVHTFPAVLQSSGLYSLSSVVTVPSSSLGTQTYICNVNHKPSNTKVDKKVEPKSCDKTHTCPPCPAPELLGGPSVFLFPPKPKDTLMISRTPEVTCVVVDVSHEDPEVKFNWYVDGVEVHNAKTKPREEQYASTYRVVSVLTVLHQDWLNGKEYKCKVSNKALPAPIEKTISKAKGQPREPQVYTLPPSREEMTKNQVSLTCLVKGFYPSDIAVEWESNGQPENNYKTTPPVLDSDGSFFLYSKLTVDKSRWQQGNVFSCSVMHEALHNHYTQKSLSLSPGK
light: AVLTQSPSTLSASVGDRVTITCKSSESVYGDYLAWFQQKPGKAPKQLIYDASTLASGVPSRFSGSGSGTEFTLTISSLQPDDFATYYCAGGYVSAGVAFGGGTKVEIKRTVAAPSVFIFPPSDEQLKSGTASVVCLLNNFYPREAKVQWKVDNALQSGNSQESVTEQDSKDSTYSLSSTLTLSKADYEKHKVYACEVTHQGLSSPVTKSFNRGEC
notes: Full-length humanized variant of Ab21
